In patent publication US8846363B2, “Compositions of and methods of using sulfatases from Flavobacterium heparinum” (priority 2007, dated 2014):

B1: Flavobacterium heparinum N-sulfamidase (ORF C), recombinant, NH2-terminal truncation lacking signal sequence, SEQ ID NO: 4 (Pedobacter heparinus DSM 2366) (protein)
chain: SCTSPEKKTDRPNILMIMSDNQSWNHVGSYGDQTVRTPNMDRIAKEGVRFTNAFCSSPSCTPARAGMLTGQDIWRLEDGGNLWGVLPVKYKVYPDLLEEAGYAIGFQGKGWGPGSFEANKRPRNPAGNEFKSFGAFLKDKKEGPWCYWISSHEPHRPYVEGSGEKAGIDPNKVKVPAYLPDHISIRKDIADYYAAVETFDRELGEALDQLKASGELDNTVIVVCSDNGWQMPRGLANLYDFGTHVPLIISWPGKFKQDVVADNLVTLNDLAPTFLQLGKVPVPADMTGKSLLPIVEAGKKDEKPRDYVVLGRERHAFVRRHGLGYPGRAIRTKDYLYIKNYEPNRWPAGDPPFYGDIDPYMFNWPGETKYYLIEHKDDPKVKSFFELGMGKRPAEELFDINKDPDELHNLAALPEYQKIKQELVAKLRNYLVATKDPRETNGNIQIWDTAAYFSEIDKTPKPSKEMQKRFKLDSSYNYLK
notes: E. coli BL21(DE3), N-terminal 6xHis removed by thrombin
B2: Flavobacterium heparinum 6-O-sulfatase (ORF B), recombinant, NH2-terminal truncation lacking signal sequence, SEQ ID NO: 2 (Pedobacter heparinus DSM 2366) (protein)
chain: TLMSCQQPKPAESAKRPNIVFIMTDDHTIQAISAYGSKLVKTPNLDRIANEGMLFNNCFVTNAVCGPSRATILTGKYSHLNGLTDNSKVFDSTQVIYPQLLKKAGYQTAMIGKWHLGSTPMGFDYYSILPNQGQYYQPEFIENGHLVKEKGYVTDLITDKAIGFLEKRDHDKPFLMIYQHKAPHRNWLPAPRHLGMFDDTVFPEPANLLDDFKGRGRAAKEQLMNISTDMWPAWDLKMLSTAQLDSMAKLPVSPKFKDAKGDDYQQANDPSLDKARFFEVYNRMTDAEKVQWRKVYDKRVAEFKRLNPKGADLVRWKYQQYMRDYLACVVSVDENVGRLMDYLKKIGELDNTIIVYTSDQGFYLGEHGYFDKRFMYDESFRTPLMVRYPPSVKAGSVSNAFAMNLDFAPTLLDYAGVKIPADMQGLSLRPVLDNAGKSPENWRKAVYYHYYEFPSWHMVKRHYGIRTERYKLIHFYNDIDEWELYDMQKDPHEMQNLYNDKAYEPIIKDLKVQMKKLQVQYKDTNPTEAL
notes: as for B1

What was measured:
[1] = Pilot capillary electrophoresis desulfation assay with monosulfated 4-MU gluco- and galactopyranosides; type: biochemical
Experimental: (§1) Initial assessment of substrate specificity and pH optima was made using a capillary electrophoresis-based assay for the detection of desulfated products. Preliminary enzyme activity was measured against the following series of fluorescently derivatized, monosulfated gluco and galactopyranosides: 4-MU-GlcNAc,6S, 4-MU-GlcNS, 4-MU-GalNAc,6S and 4-MU-Gal6S. Standard reactions included 1 mM substrate, 1-10 μM enzyme, 50 mM sodium acetate, pH 5.5-6.5 and 5 mM CaCl2 in a 20 μL reaction volume. For pilot experiments, exhaustive reactions involved overnight incubations at 30° C. Enzyme was inactivated by heat denaturation at 95° C. for 10 minutes, followed by a 10-fold dilution into water. Reaction products were resolved by capillary electrophoresis using a 25 cm long, 75 μm (i.d.) fused silica capillary (Agilent Technologies, Palo Alto, Calif.). Electrophoresis was carried out under negative polarity by applying a voltage of −15 kV (˜1.2 W) for 10 minutes. Substrate desulfation was measured as a percentage of substrate depletion relative to a minus enzyme control as monitored by the loss of UV absorbance at 315 nm detected at approximately 4 minutes. A standard capillary electrophoresis buffer included 50 mM Tris and 10 μM dextran sulfate (average MW of 10,000 Da) adjusted to pH 2.0 with phosphoric acid. At this pH, saccharide migration occurred on the basis of charge without the influence of electro-osmotic flow.

[2] = Storage stability of purified enzymes; type: physicochemical; settings: 4° C., ~10 mg/mL
Experimental: Final protein concentrations were determined colorimetrically using the Bradford Assay (Bio-Rad, Hercules, Calif.) and confirmed by UV absorption spectroscopy using theoretical molar extinction coefficients (ε280) of 94,730 M^−1 (61,572 Da) and 86,340 (53,193 Da) for the NH2-terminally truncated ORF B (6-O-sulfatase) and ORF C(N-sulfamidase), respectively. These values were calculated for thrombin-cleaved proteins lacking a 6×His purification tag. Enzymes were stored at 4° C. at a concentration of ˜10 mg/mL.

[3] = Effect of pH on N-sulfamidase activity by capillary electrophoresis; type: biochemical
Experimental: as §1
The effect of pH was likewise measured by capillary electrophoresis using the following three sets of buffers with overlapping pH ranging from 4.5 to 8.0:50 mM sodium citrate at 4.5, 5.0, and 5.5; 50 mM MES at 5.5, 6.0, 6.5 and 7.0; and 50 mM MOPS at 6.5, 7.0, 7.5, and 8.0. Reactions included 1 μM enzyme, 2 mM 4-MU-GlcNAc,6S (for 6-O-sulfatase) or 4-MU-GlcNS (for N-sulfamidase), 50 mM buffer and 5 mM CaCl2 in a 20 μL reaction volume. Assay was initiated by the addition of 2 μl of a 10× enzyme stock to 18 μL of preheated reaction mixture. […]

[4] = Effect of pH on 6-O-sulfatase activity by capillary electrophoresis; type: biochemical
Experimental: as §1, with “Electrophoresis was carried out under negative polarity by applying a voltage of −15 kV (˜1.2 W) for 10 minutes.” left out, “A standard capillary electrophoresis buffer included 50 mM Tris and 10 μM dextran sulfate (average MW of 10,000 Da) adjusted to pH 2.0 with phosphoric acid. At this pH, saccharide migration occurred on the basis of charge without the influence of electro-osmotic flow.” left out
The effect of pH was likewise measured by capillary electrophoresis using the following three sets of buffers with overlapping pH ranging from 4.5 to 8.0:50 mM sodium citrate at 4.5, 5.0, and 5.5; 50 mM MES at 5.5, 6.0, 6.5 and 7.0; and 50 mM MOPS at 6.5, 7.0, 7.5, and 8.0. […]

Molecule | substrate specificity among four monosulfated 4-MU substrates [1] | retention of enzyme activity on storage [2] | activity below pH 4.5 ([3]; below pH 4.5) | pH range of activity compared with the other enzyme ([3]; compared with 6-O-sulfatase) | activity in acetate buffer compared to sulfonate buffers (MES, MOPS) ([3]; same pH range) | activity on the two 6-O-sulfated galactose sugars ([1]; 4-MU-Gal6S and 4-MU-GalNAc,6S) | activity below pH 4.5 ([4]; below pH 4.5) | activity in acetate buffer compared to sulfonate buffers (MES, MOPS) ([4]; same pH range)
B1 | could only hydrolyze the glucosamine sulfated at the 2-amino position | Full enzyme activity was retained for several months | Neither enzyme was active | active over a broader range, especially above pH 7.0 | higher activity in acetate buffer | – | – | –
B2 | specific for the 6-O-sulfated glucosamine | Full enzyme activity was retained for several months | – | – | – | did not act upon | Neither enzyme was active | higher activity in acetate buffer
